Patent US20020150993A1 (Genentech, published 2002)

T1: TNFR1 immunoadhesin (human, UniProt P19438 30-211, limits assumed)
T1 construct: extracellular domain; also called TNFR1-IgG; not shown: hinge and Fc portion of human IgG, as described in Ashkenazi et al. 1991
T1 sequence (looked up): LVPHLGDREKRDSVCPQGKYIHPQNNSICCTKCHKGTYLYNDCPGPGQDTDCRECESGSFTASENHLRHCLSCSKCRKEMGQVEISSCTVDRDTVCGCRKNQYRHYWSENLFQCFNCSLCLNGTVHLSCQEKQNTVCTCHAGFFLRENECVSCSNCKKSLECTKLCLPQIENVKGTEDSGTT

T2: TNFR2 immunoadhesin (human, UniProt P20333 23-257, limits assumed)
T2 construct: extracellular domain; also called TNFR2-IgG; not shown: hinge and Fc portion of human IgG, as described in Ashkenazi et al. 1991
T2 sequence (looked up): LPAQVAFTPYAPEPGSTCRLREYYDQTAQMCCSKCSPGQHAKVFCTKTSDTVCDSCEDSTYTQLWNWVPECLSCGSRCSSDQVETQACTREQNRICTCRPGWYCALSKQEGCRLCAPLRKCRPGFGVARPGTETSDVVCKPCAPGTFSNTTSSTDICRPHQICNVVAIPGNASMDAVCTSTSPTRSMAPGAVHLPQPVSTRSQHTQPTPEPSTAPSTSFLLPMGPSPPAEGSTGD

T3: DR4 immunoadhesin (human, UniProt O00220 24-239, limits assumed)
T3 construct: extracellular domain; also called DR4-IgG; not shown: hinge and Fc portion of human IgG, as described in Ashkenazi et al. 1991
T3 sequence (looked up): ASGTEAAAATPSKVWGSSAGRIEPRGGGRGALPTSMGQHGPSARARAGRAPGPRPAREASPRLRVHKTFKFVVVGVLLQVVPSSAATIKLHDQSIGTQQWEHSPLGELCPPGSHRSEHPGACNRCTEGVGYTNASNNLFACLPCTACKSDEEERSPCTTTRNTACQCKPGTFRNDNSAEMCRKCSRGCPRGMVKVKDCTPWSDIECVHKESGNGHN

T4: Apo-3 immunoadhesin (human, UniProt Q93038 25-199)
T4 construct: extracellular domain; also called Apo-3-IgG; DR3; not shown: hinge and Fc portion of human IgG, as described in Ashkenazi et al. 1991
T4 sequence (looked up): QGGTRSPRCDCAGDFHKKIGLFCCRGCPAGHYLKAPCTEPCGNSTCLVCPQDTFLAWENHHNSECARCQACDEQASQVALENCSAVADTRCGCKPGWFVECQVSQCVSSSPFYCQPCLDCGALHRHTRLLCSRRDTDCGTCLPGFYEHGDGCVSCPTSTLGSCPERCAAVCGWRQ

B1: PRO364-IgG (PRO364 extracellular domain immunoadhesin) (Fc fusion)
chain: QRPTGGPGCGPGRLLLGTGTDARCCRVHTTRCCRDYPGEECCSEWDCMCVQPEFHCGDPCCTTCRHHPCPPGQGVQSQGKFSFGFQCIDCASGTFSGGHEGHCKPWTDCTQFGFLTVFPGNKTHNAVCVPGSPPAE
notes: Expressed in insect cells with Baculovirus; also called PRO364 immunoadhesin; PRO364 ECD C-terminus IgG-Fc tagged form; not shown: IgG Fc fused at the C-terminus
B2: full-length DNA19355 polypeptide on cells (ligand)
chain: MCLSHLENMPLSHSRTQGAQRSSWKLWLFCSIVMLLFLCSFSWLIFIFLQLETAKEPCMAKFGPLPSKWQMASSEPPCVNKVSDWKLEILQNGLYLIYGQVAPNANYNDVAPFEVRLYKNKDMIQTLTNKSKIQNVGGTYELHVGDTIDLIFNSEHQVLKNNTYWGIILLANPQFIS
notes: also called DNA19355 ligand; polypeptide encoded by DNA19355-1150
B3: CD95 immunoadhesin (Fc fusion, UniProt P25445 26-173, looked up)
chain: QVTDINSKGLELRKTVTTVETQNLEGLHHDGQFCHKPCPPGERKARDCTVNGDEPDCVPCQEGKEYTDKAHFSSKCRRCRLCDEGHGLEVEINCTRTQNTKCRCKPNFFCNSTVCEHCDPCTKCEHGIIKECTLTSNTKCKEEGSRSN
notes: extracellular domain; also called Fas-IgG; CD95-IgG; not shown: hinge and Fc portion of human IgG, as described in Ashkenazi et al. 1991
B4: soluble DNA19355 polypeptide (ECD, His10-tagged, 125I-labeled) (ligand)
chain: MGHHHHHHHHHHSSGHIDDDDKHMETAKEPCMAKFGPLPSKWQMASSEPPCVNKVSDWKLEILQNGLYLIYGQVAPNANYNDVAPFEVRLYKNKDMIQTLTNKSKIQNVGGTYELHVGDTIDLIFNSEHQVLKNNTYWGIILLANPQFIS
modifications: 125I-labeled (radioiodinated)
notes: Expressed in E. coli and purified on Nickel-sepharose; Removal of the tag is not reported; also called soluble DNA19355 ECD molecule; radioiodinated DNA19355 polypeptide

How the values were obtained:
[1] = target: B2; assay: FACS on 293 cells transiently transfected with full-length DNA19355
Method: In another assay, human 293 cells were transiently transfected with full-length DNA19355 and the ability of receptor immunoadhesin constructs for PRO364, TNFR1, HVEM, and DcR1 to t bind to those transfected cells was determined by FACS analysis. The 293 cells were maintained in high glucose DMEM media supplemented with 10% fetal bovine serum (FBS), 2 mM glutamine, 100 microgram/ml penicillin, and 100 microgram/ml streptomycin. The transfected cells (1×10⁵) were incubated for 60 minutes at 4° C. in 200 microliters 2% FBS/PBS with 1 microgram of the respective receptor or ligand immunoadhesin. The cells were then washed with 2% FBS/PBS, stained with R-phycoerythrin-conjugated goat anti-human antibody (Jackson Immunoresearch, West Grove, Pa.). Next, the cells were analyzed by FACS. To test the binding of the respective immunoadhesins to the transiently transfected cells, an expression vector (pRK5-CD4; Smith et al., Science, 328:1704-1707 (1987)) for CD4 was co-transfected with DNA19355 expression vector (see above). FITC-conjugated anti-CD4 (Pharmingen, San Diego, Calif.) was then used to identify and gate the transfected cell population in the FACS analysis.

TNFR1 immunoadhesin [2] = target: T1, TNFR1 immunoadhesin; assay: FACS on HUVEC (endogenous DNA19355 transcripts)
Method: (§1) The DNA19355 polypeptide was identified in a human umbilical vein endothelial cell (HUVEC) library, and the DNA19355 polypeptide transcripts are readily detectable in HUVEC by RT-PCR (data not shown). […] HUVEC were purchased from Cell Systems (Kirkland, Wash.) and grown in a 50:50 mix of Ham's F12 and Low Glucose DMEM media containing […] fetal bovine serum, 2 mM L-glutamine, 10 mM Hepes, and 10 ng/ml basic FGF. Cells were FACS sorted with PBS, PRO364-IgG, TNFR1-IgG or Fas-IgG as a primary antibody and goat anti-human F(ab′)2 conjugated to phycoerythrin (CalTag, Burlingame, Calif.).

[3] = target: B2; assay: FACS on HUVEC (endogenous DNA19355 transcripts)
Method: as §1

CD95 immunoadhesin = target: B3; assay: co-precipitation with protein A-sepharose, SDS-PAGE, autoradiography
Method: (§2) The soluble DNA19355 ECD molecule was then labeled with […], for testing its ability to interact with the PRO364 immunoadhesin. For comparison, immunoadhesin constructs were also made of the following TNF receptor family members: CD95, DR4, DR5, TNFR1, TNFR2, and Apo-3. CD95, DR4, DR5, TNFR1, TNFR2, and Apo-3 immunoadhesins were prepared by fusing each receptor's ECD to the hinge and Fc portion of human IgG, as described previously for TNFR1 [Ashkenazi et al., Proc. Natl. Acad. Sci., 88:10535-10539 (1991)]. The respective TNF receptor family members are described (and relevant references cited) in the Background of the Invention section.
(§3) For the co-precipitation assay, each immunoadhesin (5 microgram) was incubated with ¹²⁵I-labeled soluble DNA19355 polypeptide (1 microgram) for 1 hour at 24° C., followed by protein A-sepharose for 30 minutes on ice. The reaction mixtures were spun down and washed several times in PBS, boiled in SDS-PAGE buffer containing 20 mM dithiothreitol and then resolved by SDS-PAGE and autoradiography.

TNFR2 immunoadhesin = target: T2, TNFR2 immunoadhesin; assay: as above
Method: as §2, §3

DR4 immunoadhesin = target: T3, DR4 immunoadhesin; assay: as above
Method: as §2, §3

TNFR1 immunoadhesin [4] = target: T1, TNFR1 immunoadhesin; assay: as above
Method: as §2, §3

DR5 immunoadhesin = target: T5, DR5 immunoadhesin (human, UniProt O14763 56-210, limits assumed); assay: as above
T5 construct: extracellular domain; also called DR5-IgG; Apo-2; not shown: hinge and Fc portion of human IgG, as described in Ashkenazi et al. 1991
Method: as §2, §3

Apo-3 immunoadhesin = target: T4, Apo-3 immunoadhesin; assay: as above
Method: as §2, §3

Binder: B1
- binding result [1]: binds

Binder: B2
- binding result (TNFR1 immunoadhesin [2]): no binding

Binder: B3
- binding result [3]: no binding

Binder: B4
- binding result (CD95 immunoadhesin): no binding
- binding result (TNFR2 immunoadhesin): no binding
- binding result (DR4 immunoadhesin): no binding
- binding result (TNFR1 immunoadhesin [4]): no binding
- binding result (DR5 immunoadhesin): no binding
- binding result (Apo-3 immunoadhesin): no binding
